Laboratory results taken from the supplement of paper PMC10126150.
± gives the standard deviation of the averaged measurements.

Tested on: ATP
Test: switch fluorescence ratio, 500 uM ATP over buffer (Cy3 cluster intensity, sum of 5 cycles each) (fold (ratio)); higher = stronger signal-on switching upon ATP binding; sequences stand for … in TCGTCGGCAGCGTCAGATGTGTATAAGAGACAGTTTTTTTTTTTTTTTTTTTTTTTTT…TC
Details: aptamer strand: ATP DNA aptamer (quencher-CACCTGGGGGAGTATTGCGGAGGAAGG + anchor), 100 nM annealed; ATP concentration: 500 uM
In short: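 Clusters with intensities outside 100-1000 RFU were excluded. The remaining Cy3-labelled switching-strand clusters on a modified Illumina MiSeq flow-cell had been annealed to 100 nM quencher-labelled ATP aptamer and imaged in selection buffer, then after 15 min with 500 uM ATP at 22 °C, for five cycles separated by NaOH stripping and re-annealing. The fluorescence ratio, averaged per switch-domain sequence, is each cluster's summed target-cycle Cy3 intensity over its summed buffer-cycle Cy3 intensity.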
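Note: ATP exposure 15 min at 22 °C before imaging.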

| Sequence | switch fluorescence ratio |
| --- | --- |
| TAGAACTGGG | 1.05 ± 0.037 |
| TGTTAGTTAT | 1.06 ± 0.066 |
| GGGGGCTTAC | 1.01 ± 0.021 |
| TAGGGTCATT | 0.999 ± 0.029 |
| CGTACTCGTA | 1.01 ± 0.019 |
| GACTAGAGGG | 0.99 ± 0.034 |
| GTTATATGGA | 0.996 ± 0.018 |
| TCGATGTTTC | 1.01 ± 0.026 |
| GCCGATTATA | 1 ± 0.00097 |
| AGTGGGGGAG | 1.002 ± 0.0087 |
| TTGGTGGGTG | 1.01 ± 0.045 |
| GGAACATATA | 1.01 ± 0.0064 |
| CGTCGCAGTG | 1.03 ± 0.052 |
| TAAGTGAAAG | 0.986 ± 0.022 |
| GGTTCTTGGT | 0.949 ± 0.028 |
| CTAGAAAGC | 1.02 ± 0.02 |
| CATATTCGGC | 0.988 ± 0.061 |
| AAATATTTAT | 0.971 ± 0.018 |
| GATACATGTG | 1.048 ± 0.0086 |
| TGGGGAGGCT | 1.04 ± 0.055 |
| GGGGGTGCGA | 1.01 ± 0.026 |
| GGGGTGTGGG | 1 ± 0.018 |
| TTTGAACGTT | 1 ± 0.037 |
| ATTCTCCATT | 1.0229 ± 0.00088 |
| CCTATATAGA | 0.999 ± 0.029 |

| Sequence | switch fluorescence ratio |
| --- | --- |
| CATAGTGATG | 0.986 ± 0.026 |
| ATGTTAAGTC | 0.97 ± 0.049 |
| GGGGTAGTTA | 0.9743 ± 0.0066 |
| ATTTCAACGT | 0.9879 ± 0.0034 |
| GCCGGATTCG | 1.02 ± 0.013 |
| TGTGACGGGG | 1.02 ± 0.035 |
| ACGGTATTGG | 1.09 ± 0.044 |
| AGAGGTAGGG | 0.984 ± 0.035 |
| AGTGTGGTCT | 1.02 ± 0.045 |
| GGGGGTAGAC | 1.01 ± 0.026 |
| GGGAATGATC | 1.01 ± 0.034 |
| TGTGGGAAAT | 0.988 ± 0.016 |
| TGCCAATGGG | 1 ± 0.038 |
| GATTTTTAAA | 1.02 ± 0.035 |
| TCCAATCGGT | 0.973 ± 0.019 |
| TGAAATATGG | 1 ± 0.017 |
| AAAATAAAG | 0.947 ± 0.077 |
| TGTGTATGGG | 1.19 ± 0.28 |
| GCTAAGGGGC | 1.03 ± 0.018 |
| TACCACGTTG | 1 ± 0.009 |
| CGATTATAGG | 1.003 ± 0.0096 |
| AGTGGGGTCA | 0.989 ± 0.021 |
| GGCGCGTGTC | 0.9945 ± 0.009 |
| CAAGATTGTG | 1.01 ± 0.017 |
| GGCGCTAGCG | 0.993 ± 0.068 |

| Sequence | switch fluorescence ratio |
| --- | --- |
| TTTCATCCTG | 1.0331 ± 0.00038 |
| ATGTGAAAGA | 0.982 ± 0.011 |
| GGGGGGTCCA | 1.01 ± 0.023 |
| GTTCTGGGGT | 1 ± 0.016 |
| CTTGGTCTGA | 0.994 ± 0.024 |
| GGGTCCCCGC | 1.12 ± 0.056 |
| CATACATACG | 1.42 ± 0.056 |
| TGACGAAGGG | 0.987 ± 0.023 |
| ATGGGGGGCA | 0.971 ± 0.025 |
| ATAGAAGAGA | 0.985 ± 0.027 |
| GGTCTGTGTG | 0.984 ± 0.028 |
| TAAGATGGTG | 0.981 ± 0.011 |
| ATTCGTCTAG | 0.989 ± 0.012 |
| CAGGGGTGTG | 0.996 ± 0.0076 |
| TAAATATGGG | 0.999 ± 0.034 |
| AGATTTCGGC | 1.039 ± 0.0015 |
| TTATTGCTCG | 0.989 ± 0.021 |
| ATCTGTTTTT | 0.972 ± 0.0075 |
| CAGTGTTGGG | 1.002 ± 0.0016 |
| GCGGTAAGGG | 1.016 ± 0.004 |
| GGTTATGCAG | 0.977 ± 0.1 |
| GGTGTGGCGA | 1.03 ± 0.11 |
| TGGGATAGAA | 0.996 ± 0.019 |
| TTTTGTTTGG | 1.02 ± 0.041 |
| GAGATCGTAT | 0.991 ± 0.017 |

| Sequence | switch fluorescence ratio |
| --- | --- |
| TCCGACTCG | 1.09 ± 0.041 |
| TGCTTGCAAA | 1.06 ± 0.069 |
| TGCTATGGGC | 1.01 ± 0.017 |
| GGGGAATGGG | 1.01 ± 0.028 |
| TAAGGGGCGT | 1.03 ± 0.035 |
| AGTGAGTGCT | 0.9751 ± 0.0059 |
| TTAGGCGGGA | 0.995 ± 0.046 |
| AAAGGGTTTC | 1 ± 0.038 |
| GACGAATCCA | 1.03 ± 0.046 |
| GGGTTAGATC | 1.03 ± 0.039 |
| AGTGGAGACG | 1.03 ± 0.012 |
| GGCCTGGGAC | 1.01 ± 0.027 |
| CGCATGCTGG | 1.02 ± 0.024 |
| CCGTTAGGCG | 0.987 ± 0.029 |
| TGATCCTTGG | 1.03 ± 0.031 |
| TGCTCGTATA | 0.9852 ± 0.0062 |
| TGGGTGGTGT | 1.016 ± 0.0034 |
| AAGGGCTTGC | 1.01 ± 0.041 |
| CGAATTGGTA | 0.982 ± 0.011 |
| GGATTACAGT | 0.997 ± 0.014 |
| CTGGGCTTAG | 0.982 ± 0.037 |
| GATGTAAGGT | 1.02 ± 0.029 |
| CGGGAAAGTT | 1.02 ± 0.04 |
| GTTTGTGGTA | 0.978 ± 0.011 |
| CTATCGGTGA | 0.9767 ± 0.0019 |

| Sequence | switch fluorescence ratio |
| --- | --- |
| GGGTCAAAGT | 1.01 ± 0.013 |
| CGGTAGGGTT | 0.978 ± 0.022 |
| CAGAGATTTA | 0.995 ± 0.024 |
| TTCTAAAATT | 0.992 ± 0.032 |
| AAGGTGTTTT | 1.08 ± 0.016 |
| GAGGGGAACT | 0.995 ± 0.021 |
| TGGGATTGAC | 1.06 ± 0.019 |
| GCCGCACGGA | 1.13 ± 0.045 |
| GTGAGATTGC | 0.95675 ± 0.0008 |
| CTTGCATTTT | 1.04 ± 0.031 |
| GACGGGGGGT | 1 ± 0.041 |
| TTGCGTAAGG | 1.06 ± 0.056 |
| ATGAGATTGC | 0.9899 ± 0.0076 |
| GGTCTGTTTC | 1.01 ± 0.015 |
| TGTAGCAGGT | 1.155 ± 0.0025 |
| AATTCATAGT | 0.978 ± 0.018 |
| TGTTAGTTAC | 1.03 ± 0.025 |
| TTCAGCTACA | 1.02 ± 0.029 |
| TTTTTTGTGT | 0.991 ± 0.03 |
| AAGGCACAAG | 1 ± 0.021 |
| AGTTAACTTT | 1.02 ± 0.028 |
| ACAGTCAGAT | 1.057 ± 0.0067 |
| CCTGGGGTCG | 1.05 ± 0.05 |
| CTAGCCTCTT | 0.995 ± 0.027 |
| AAGGGGGATT | 1.01 ± 0.044 |

| Sequence | switch fluorescence ratio |
| --- | --- |
| GCTTCAAGAC | 1.58 ± 0.0071 |
| TCAGGGAGTG | 0.9758 ± 0.0095 |
| TGCACTGGGA | 1.04 ± 0.034 |
| TGGGGGTTTA | 1.03 ± 0.019 |
| CAGTAAGATC | 1.026 ± 0.0056 |
| ATATATTTTA | 1.01 ± 0.022 |
| GTTGCAGGGT | 1.004 ± 0.0065 |
| GTGGGGGGAT | 0.999 ± 0.023 |
| TTTAATCATT | 1 ± 0.029 |
| GATGGAACGG | 1.05 ± 0.039 |
| ACGTGCTCGT | 0.991 ± 0.041 |
| TTTCGATAGG | 0.979 ± 0.034 |
| AATTTGGTCG | 0.978 ± 0.03 |
| AGCGGCCCGG | 1.02 ± 0.017 |
| GTTTGGTTGG | 1 ± 0.02 |
| GGATATCTGG | 1.014 ± 0.0053 |
| AGATGTAGTG | 0.9948 ± 0.0036 |
| GTTTGTCTGC | 0.963 ± 0.025 |
| GATGGGCGGG | 1.03 ± 0.055 |
| ATCCAAATGG | 1.01 ± 0.033 |
| ACCCAGCGCT | 1.04 ± 0.023 |
| GTGTATAGCA | 1.03 ± 0.014 |
| CCGGGTGGTT | 1.02 ± 0.08 |
| GGGGGGGCGC | 1.02 ± 0.035 |
| TGGGCTAAGC | 1.03 ± 0.028 |

| Sequence | switch fluorescence ratio |
| --- | --- |
| TCGAATGGCC | 0.994 ± 0.024 |
| TCTCGGCTAT | 2.98 ± 0.2 |
| AGGGTTAACA | 1.01 ± 0.016 |
| TAAACCCTGC | 1.07 ± 0.032 |
| AGGAGAAAAG | 1.22 ± 0.29 |
| TGCAGCATTA | 2.31 ± 0.19 |
| CCTATTCGTT | 1.0064 ± 0.0008 |
| GGTACAGAAT | 0.9997 ± 0.0012 |
| GATGTAGGAG | 0.971 ± 0.019 |
| TCACGTTCAA | 1.06 ± 0.022 |
| GGGTTATTTT | 0.999 ± 0.043 |
| TACCTGAAAA | 0.985 ± 0.022 |
| GCTATAATCG | 1.073 ± 0.0027 |
| AGATATTAGA | 1.017 ± 0.0048 |
| AAACCTGGCT | 1.41 ± 0.034 |
| TGCAACGGGT | 1.02 ± 0.018 |
| AAGTCATGGA | 1.02 ± 0.027 |
| GGGGTGGGAC | 1.044 ± 0.006 |
| GGGCTTTTGG | 0.9868 ± 0.0012 |
| GTATTAGGGT | 1 ± 0.041 |
| ATGTAATGAT | 1.02 ± 0.018 |
| GATTTATGAC | 1.02 ± 0.038 |
| GGGCGGACGT | 0.969 ± 0.041 |
| GACCTGGGGC | 0.973 ± 0.068 |
| TAGGGGTTAG | 0.9808 ± 0.0098 |

| Sequence | switch fluorescence ratio |
| --- | --- |
| AAGAGGTGAA | 0.987 ± 0.013 |
| GAGATAGAGG | 1.006 ± 0.0087 |
| CGATATTTGG | 1 ± 0.02 |
| TTTGTTTCGT | 1.03 ± 0.11 |
| CGGTAAAGCG | 0.9808 ± 0.0071 |
| TCTTCAAGTT | 0.988 ± 0.031 |
| TCTTAAAAT | 1.006 ± 0.0097 |
| TAATTGGACG | 1.12 ± 0.062 |
| CACCAAGGTT | 1.15 ± 0.088 |
| GATTGGTGGC | 1.04 ± 0.049 |
| GTTGGGGAAT | 1.04 ± 0.093 |
| GGTAGAGGGG | 0.9628 ± 0.0078 |
| TTATGCATGT | 1.02 ± 0.038 |
| ACCCGATTGC | 1.29 ± 0.044 |
| GGGCCATAAG | 0.988 ± 0.052 |
| TGAGGGCATT | 1 ± 0.012 |
| TTTTAATTCC | 1.02 ± 0.038 |
| GATAACGAAG | 1.008 ± 0.006 |
| TTTAATAATT | 1.03 ± 0.032 |
| CGGTGAGTGG | 1.01 ± 0.02 |
| TGACGTAAGG | 0.994 ± 0.026 |
| GAAATACGCT | 1.08 ± 0.022 |
| GTCGGGGTCA | 0.99653 ± 0.0006 |
| TGTTTATGTT | 0.9975 ± 0.0064 |
| GAAGTGGGGT | 0.995 ± 0.015 |
